Test system: STAT3 phosphorylation in BCC and SCC lines
Assay: phospho-STAT3 levels in transformed keratinocyte lines (IL-22)
Format: cell-based
Settings: BCC (n = 2) and SCC (n = 5) lines vs healthy strains (n = 5), IL-22 time course
Experimental: Figure 4 SOCS3 and SOCS1 are poorly expressed in the epidermis of NMSC lesions and are not induced in transformed keratinocytes by IL-22 (A) Immunohistochemistry for SOCS3 and SOCS1 (red staining) was performed respectively on frozen or paraffin-embedded sections from biopsies of healthy skin (i), NLS (ii, iii) and LS (iv, v) areas of BCC and SCC, specimens. Psoriatic skin biopsies were also analyzed (vi). Sections were counterstained with Mayer's H&E and were visually evaluated by an pathologist experienced in dermatology. One out of four representative staining is shown. Scale bars, […]. (B) Graphs show SOCS3 and SOCS1 mRNA levels which were detected by real-time PCR analysis in cultured SCC (CAL27 and CAL33) and BCC (M77015) skin tumor lines left untreated or stimulated with IL-22 or IFN-γ for 3 h and normalized for β-actin mRNA expression levels. All data were obtained from three independent experiments. […] SOCS1 was detected by IP using a specific anti-SOCS1 Ab, whereas SOCS3 by WB with an anti-SOCS3 Ab. […] Densitometric intensity (D.I.) of SOCS1 or SOCS3/β-actin was calculated from three independent experiments and numerically expressed as D. I. Ratio. *p < 0.01; **p < 0.05. […] SOCS3 and phospho-Tyr STAT3 levels were detected by WB and normalized to β-actin levels. […]

B1: IL-22: cytokine stimulus, R&D Systems (protein, UniProt Q9GZX6 34-179, looked up)
Interleukin-22: APISSHCRLDKSNFQQPYITNRTFMLAKEASLADNNTDVRLIGEKLFHGVSMSERCYLMKQVLNFTLEEVLFPQSDRFQPYMQEVVPFLARLSNRLSTCHIEGDDLHIQRNVQKLKDTVKKLGESGEIKAIGELDLLFMSLRNACI
- phospho-STAT3 levels: higher compared to healthy cells, and showed a long-lasting activation

From paper PMC5421877, “SOCS3 inhibits the pathological effects of IL-22 in non-melanoma skin tumor-derived keratinocytes” (Oncotarget, 2017)
